Assay results from a protein production outcome set (Wang et al. 2014).

Assay: label from the status in PepcDB records

Sequence | protein production
MSKGTLFTIAVTPKIPPRLARLEDLANDLWYSWDRATRSLFSRLDPSLWGAVGHNPKAFLKRVDETLLLKAAEDQVFLANYNSIVSAYDYYHSETLWNGIDASLNPSDKIAYFCFEFGFHESFPIYSGGLGILAGDHCKAASDLRLPLIGIGLLYRQGYFFQTIDNQGNQQVIYADSDFSDLPVAPVLREDGSEVRIKVELLQRPVAIKVWRAKIGHVSLYLLDTDLPENSPGDRDITHQLYGGDRVMRIEQEIVLGVGGIRALREMGIEPTIWHINEGHAAFMMLERIRGHVQQGLDFPAALEAVAASTVFTTHTAVPAGHDHFSDDMMNAYFEPFYRDLKITREDFLALGRVPGSDDFNMTDLAIRASRYQNGVSKIHGNVSARICKDVWPQIEPEENPMSYITNGVHVPTFLAQEWADLFDRYLGYEWRNNMCDTEYWSRIDTIPDHLFWSVRQTLKSQMFYGIRARLTTQNARNHGSEAHLDRLLRFTDPINPNILTLGFGRRFATYKRATLLFEDLDWLRRIMLDQEHPVMIVFAGKAHPADVPGQDLIRRVSEIARMPEFEGQILLVEDYDLRLARRLVAGVDVWINSPVYPLEASGTSGMKAGINGTINLSVLDGWWGEGYDGKNGWAIKPGPENMDAVRRDKEESKDFYETLQDHVVPLYYNRDKLGYSSGWVKMAKNSMKSLLPRYNATRMITEYTMKFYLPAKKQGALYAADDFSNARKIAAWKAFVREAWPGVTIRRLDKPFSQISFGEAVDFRVAVRLNGLHPEDVVVELLICRRLKKTTLCSFKHVRFQFRGIEEESAEHLFELDHTPDLCGKLDYYIRVYPYHALLTHPFEMGMMVWL | failed
MPMMNLIYLHGFRSSSLSIKGQQLKHYCQAFPYIQVHLPDLNLPPHEVIKKIENMIQSMDQVALIGSSLGGFYATQLVAKYQIPAVLINPAMRPWQLFRQLFSDQTLPYTVCETWTLDEQQLTEMEKIAVPVVQAADKILVLLQQGDEVLDYREAERYYSQPAHPSLIFTDAHGNHAMEDFENKLPLILAFL | failed
MSLSDESFEFDVSVIGLGAMGTIMAQVLLKQGKRVAIWNRSPGKAAALVAAGAHLCESVKAALSASPATIFVLLDNHATHEVLGMPGVARALAHRTIVDYTTNAQDEGLALQGLVNQAGGHYVKGMIVAYPRNVGHRESHSIHTGDREAFEQHRALLEGLAGHTVFLPWDEALAFATVLHAHAFAAMVTFFEAVGAGDRFGLPVSKTARLLLETSRFFVADALEEAVRRLETQDFKGDQARLDVHADAFAHIAQSLHAQGVWTPVFDAVCQVVQRAAAMGYGDQDIAATTKSFAREQEEGHHHHHH | not failed
MEKYSQVIFDKNTVEFVTVAAEFCGFLERARDMKRYDFVDTALKILPLLYLKATLLPPCEPIGEDEPETFVTEEDYELIRRAIAGVLGAKDDYLEVFLPDMVYSDTPIKKCISEDLADIYQDLKDFISVFQLGLNETMNDSLVVCKEHFREFWGQRLVNTMRALHDVKYSPLEHHHHHH | not failed
MVDYKTVRCHFGDVELTKWITITDGFTVFSGADYDPELKEIGGKDGSIFIGTKTKHKVIKVPFWVKYNTIEDYDALQLALSSKKPKMLMFSHIPGRYYLAVQVGDLNFKEIKMNGFGEITFIVADAYAHSTSYRRIKDYTQDGNKMTFKIKNNGTAPAFPIFRIKHLGENGYIGITNETGAFAVGSPEEEDGTIVHRNETLFDYSKAIAQALEGAPNVAKLNYMPPTFDSELKRMRLDNILGSGKGGEYVAIGARGTTPGYGEHVGTRTFIINPDSNGEYTLNEHLWWKQIFIATAQDQKGFLKLCVTGENDEFLYGIETYKRKNGFETEYNFFALDDDGVGWRFYKQFEFQADRNYHNPFSMNRSRAVEIFREEDKFRIYFNGAHHHVTVPSLKGKKSRKIHLAMGTCSDSSKYINYNLFEKVNFEKMGVSHYNNIVNKYQPGDEVIINFENDTVSTKDIDSIQDVVLGSKMISIPPGESELVVHLSSWVAALPDISIDFEERYK | failed
MQESVVRVDYDSLETCKNFKPSVGTELIVLEKDIAHARFKGNESMVYEENFVHAGFVLIACNYAALCALNKRHSVVVSNNINFYAPLELNQEALIKAQVIQDGVKKAEIKIEAFVLDIQVLEGMIEIVVFDKKPFKFNFKEE | failed
